Source: publication PMC10484670
Positions count from the first letter of the chain named. Names may count otherwise.

T1: eIF4E (wheat, UniProt P29557 1-215)
T1 sequence: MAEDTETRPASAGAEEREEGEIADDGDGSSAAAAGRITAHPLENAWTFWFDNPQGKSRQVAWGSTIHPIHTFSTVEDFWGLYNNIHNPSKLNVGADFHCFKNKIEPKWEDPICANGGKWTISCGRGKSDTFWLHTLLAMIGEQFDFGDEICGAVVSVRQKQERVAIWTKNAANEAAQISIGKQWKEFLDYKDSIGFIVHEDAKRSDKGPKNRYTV

B1: PEMV2 BL3-6 (crystallization, L1 mutant) (structured_RNA)
RNA: GGUAGAACACGUGGGAUAGGGGAUGACCUUGUCGACCGAAACACGGUCCCCUGCUCCUUCGAGCUGGCAAGGCGCUCACAGGUUCUACC
B2: PEMV2 A23G (structured_RNA)
RNA: GGUAGAACACGUGGGAUAGGGGGUGACCUUGUCGACCGGUUAUCGGUCCCCUGCUCCUUCGAGCUGGCAAGGCGCUCACAGGUUCUAC
B3: PEMV2 U24C (structured_RNA)
RNA: B2 RNA with G23A, U24C
B4: PEMV2 G21A (structured_RNA)
RNA: B2 RNA with G21A, G23A
B5: PEMV2 C50U:G20A (structured_RNA)
RNA: B2 RNA with G20A, G23A, C50U
B6: PEMV2 U65C (structured_RNA)
RNA: B2 RNA with G23A, U65C
B7: PEMV2 C50U (structured_RNA)
RNA: B2 RNA with G23A, C50U
B8: PEMV2 U52C (structured_RNA)
RNA: B2 RNA with G23A, U52C
B9: PEMV2 C49U (structured_RNA)
RNA: B2 RNA with G23A, C49U
B10: PEMV2 U17C:A18U (structured_RNA)
RNA: B2 RNA with U17C, A18U, G23A
B11: PEMV2 U52C:A26G (structured_RNA)
RNA: B2 RNA with G23A, A26G, U52C
B12: PEMV2 G21C (structured_RNA)
RNA: B2 RNA with G21C, G23A
B13: PEMV2 C49U:G19A (structured_RNA)
RNA: B2 RNA with G19A, G23A, C49U

target: T1, eIF4E; test: EMSA

Binder	binding result
B1	binds

target: T1, eIF4E; test: EMSA; remark: another data set of the same source

Binder	binding result
B2	no binding
B3	no binding
B4	no binding
B5	no binding
B6	no binding
B7	no binding
B8	no binding
B9	binds
B10	binds
B11	no binding
B12	no binding
B13	no binding
